# Laboratory results taken from publication PMC11176775.
# Legend:
# [1] = biological target: GST-tag DNA polymerase β, full-length (1–335 amino acids) (UniProt P06746); test: SPR; Biacore X-100, 25 °C; GST-tag polβ or APE1 immobilised on CM5 chip (EDC/NHS, 10 mM sodium acetate pH 4.0), his-tag LIG1 or LIGIIIα proteins as analytes; 10 mM Hepes pH 7.4, 150 mM NaCl, 3 mM EDTA, 0.005% P20; 1:1 (Langmuir) model; polβ truncated mutants (Fig. S2) tested likewise, orientation not given
# [2] = biological target: Apurinic/apyrimidinic-endonuclease 1 (UniProt P27695); test: as above
# [3] = biological target: Polβ C-terminal (92–335 amino acids) (UniProt P06746); test: as above
# [4] = biological target: Polβ N-terminal (1–92 amino acids) (UniProt P06746); test: as above
# [5] = biological target: Polβ C-terminal (92–335 amino acids), as used in SPR (UniProt P06746); test: SPR; Supplementary Figures 2 and 3; partner immobilised on the CM5 chip not given; Biacore X-100, 25 °C; 10 mM Hepes pH 7.4, 150 mM NaCl, 3 mM EDTA, 0.005% surfactant P20; 1:1 (Langmuir) fit
# [6] = biological target: GST-tag APE1 full-length (apurinic/apyrimidinic-endonuclease 1) (UniProt P27695); test: SPR; GST-tag polβ or APE1 immobilised on CM5 chip (EDC/NHS), his-tag LIG1 or LIGIIIα passed as analyte; Biacore X-100, 25 °C; 10 mM Hepes pH 7.4, 150 mM NaCl, 3 mM EDTA, 0.005% surfactant P20; 1:1 (Langmuir) fit
# [7] = biological target: GST-tag polβ full-length (DNA polymerase β, 1–335 amino acids) (UniProt P06746); test: as above
# [8] = biological target: GST-tag polβ full-length (DNA polymerase β, 1–335 amino acids) (UniProt P06746); test: SPR; Supplementary Figures 2 and 3; partner immobilised on the CM5 chip not given; Biacore X-100, 25 °C; 10 mM Hepes pH 7.4, 150 mM NaCl, 3 mM EDTA, 0.005% surfactant P20; 1:1 (Langmuir) fit
# [9] = biological target: His-tag LIGIIIα full-length (DNA ligase IIIα, 1–922 amino acids); test: as above
# Sequence of GST-tag APE1 full-length (apurinic/apyrimidinic-endonuclease 1) (P27695 whole entry, the tested form may be a part): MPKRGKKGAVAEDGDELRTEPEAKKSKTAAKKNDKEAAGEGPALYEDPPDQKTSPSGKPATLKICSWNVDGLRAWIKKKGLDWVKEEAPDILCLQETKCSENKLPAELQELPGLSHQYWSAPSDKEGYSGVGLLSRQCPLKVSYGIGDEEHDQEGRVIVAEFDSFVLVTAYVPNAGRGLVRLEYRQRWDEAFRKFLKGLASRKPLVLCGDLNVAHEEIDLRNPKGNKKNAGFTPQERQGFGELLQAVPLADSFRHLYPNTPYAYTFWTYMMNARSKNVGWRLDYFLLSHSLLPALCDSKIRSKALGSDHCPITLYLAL
# Sequence of Apurinic/apyrimidinic-endonuclease 1 (P27695 whole entry, the tested form may be a part): as above
# Sequence of poly (ADP-ribose) polymerase 1 (PARP1), his-tag (P09874 whole entry): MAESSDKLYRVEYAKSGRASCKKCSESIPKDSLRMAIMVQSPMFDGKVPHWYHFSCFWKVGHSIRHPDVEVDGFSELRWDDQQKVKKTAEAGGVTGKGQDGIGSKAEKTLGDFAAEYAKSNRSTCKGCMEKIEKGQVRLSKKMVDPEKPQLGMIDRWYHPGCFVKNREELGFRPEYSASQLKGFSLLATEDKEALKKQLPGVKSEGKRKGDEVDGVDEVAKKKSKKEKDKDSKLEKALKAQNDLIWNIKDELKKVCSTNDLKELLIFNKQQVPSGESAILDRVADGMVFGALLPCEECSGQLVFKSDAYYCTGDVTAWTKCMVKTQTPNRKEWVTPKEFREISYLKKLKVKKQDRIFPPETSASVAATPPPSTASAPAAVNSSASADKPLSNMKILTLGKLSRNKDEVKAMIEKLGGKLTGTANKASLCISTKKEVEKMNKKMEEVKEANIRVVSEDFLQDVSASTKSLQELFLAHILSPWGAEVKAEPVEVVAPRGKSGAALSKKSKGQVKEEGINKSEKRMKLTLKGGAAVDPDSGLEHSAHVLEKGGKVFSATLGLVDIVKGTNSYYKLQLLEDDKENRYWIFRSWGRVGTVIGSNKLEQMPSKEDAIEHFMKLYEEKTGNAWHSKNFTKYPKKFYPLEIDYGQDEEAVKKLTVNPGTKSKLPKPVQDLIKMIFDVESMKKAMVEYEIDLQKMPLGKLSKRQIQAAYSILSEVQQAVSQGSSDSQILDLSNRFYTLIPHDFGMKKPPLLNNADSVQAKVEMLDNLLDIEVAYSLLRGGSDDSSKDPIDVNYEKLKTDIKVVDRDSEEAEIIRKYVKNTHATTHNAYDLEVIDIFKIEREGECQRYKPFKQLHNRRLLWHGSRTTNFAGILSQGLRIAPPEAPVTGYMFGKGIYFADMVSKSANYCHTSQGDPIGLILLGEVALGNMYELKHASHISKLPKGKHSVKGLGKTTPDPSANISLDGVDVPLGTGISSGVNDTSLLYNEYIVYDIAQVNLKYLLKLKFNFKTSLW
# Sequence of X-ray repair crosscomplementing protein 1 (XRCC1), his-tag (P18887 whole entry): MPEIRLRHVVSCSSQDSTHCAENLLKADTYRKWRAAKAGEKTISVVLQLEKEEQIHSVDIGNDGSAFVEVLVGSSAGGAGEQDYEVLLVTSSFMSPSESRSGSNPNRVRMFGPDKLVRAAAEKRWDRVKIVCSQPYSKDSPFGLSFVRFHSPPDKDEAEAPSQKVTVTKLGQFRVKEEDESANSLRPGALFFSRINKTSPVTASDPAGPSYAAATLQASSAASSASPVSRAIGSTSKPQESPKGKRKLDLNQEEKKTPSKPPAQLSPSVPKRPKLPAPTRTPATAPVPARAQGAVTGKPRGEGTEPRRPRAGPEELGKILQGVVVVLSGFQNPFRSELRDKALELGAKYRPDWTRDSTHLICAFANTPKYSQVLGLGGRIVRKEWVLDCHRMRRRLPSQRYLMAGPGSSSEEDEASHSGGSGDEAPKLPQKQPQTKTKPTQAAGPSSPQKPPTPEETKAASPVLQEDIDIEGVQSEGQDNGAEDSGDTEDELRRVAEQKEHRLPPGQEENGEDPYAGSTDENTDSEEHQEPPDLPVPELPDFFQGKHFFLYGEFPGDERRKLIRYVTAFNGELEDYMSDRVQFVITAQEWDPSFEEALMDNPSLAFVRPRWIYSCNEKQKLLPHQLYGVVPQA
substance,measurement,setting,value
DNA ligase IIIα full-length (1–922 amino acids) (enzyme),Kd,[1],7 nM
same,Kd,[2],3.3 nM
same,fold reduction of binding against the full-length proteins,[3],500 fold
same,Kd,[4],32 nM
"His-tag LIG1 full-length (DNA ligase 1, 1–919 amino acids) (from UniProt P18858 1-919) (enzyme)",Kd,[5],740 nM
"His-tag LIGIIIα full-length (DNA ligase IIIα, 1–922 amino acids) (enzyme)",Kd,[5],500 nM
"LIGIIIα△BRCT (1–755 amino acids), LIGIIIα lacking the BRCT domain (domain or fragment)",Kd,[6],1050 nM
"LIGIIIα△ZnF (170–922 amino acids), LIGIIIα lacking the zinc-finger domain (domain or fragment)",Kd,[7],27 nM
same,Kd,[6],4.9 nM
LIGIIIα▵BRCT (1–755 amino acids) (domain or fragment),Kd,[1],520 nM
same,fold difference in KD against LIGIIIα▵ZnF,[2],1000 fold
LIGIIIα▵ZnF (170–922 amino acids) (domain or fragment),Kd,[1],30 nM
"X-ray repair crosscomplementing protein 1 (XRCC1), his-tag (from UniProt P18887 1-633) (natural protein; other documents disagree on this pair)",Kd,[8],10 nM
"poly (ADP-ribose) polymerase 1 (PARP1), his-tag (from UniProt P09874 1-1014) (enzyme)",Kd,[9],20 nM
